In article PMC2132594:

Molecular target: human erythrocyte spectrin (heterodimer of α and β chains) (human) (UniProt P02549)
Assay: single-particle fluorescence imaging
Details: remark: other sources report otherwise

percent of spots in the second peak (tetramers): 40%
percent of the total spectrin in the second peak (tetramers): 59%
Substance: human erythrocyte spectrin (heterodimer of α and β chains), P02549 1-2419; P11277 1-2137
